Measurements from patent US20090036382A1, “TGF-Beta Modulators and Use Thereof” (Universita' Degli Studi Di Padova, priority 2006, published 2009).
“Also recorded” adds a separate entry of the source.

What was measured:
[1] = biological target: T1, pro TGF-β (Homo sapiens, UniProt P01137); experiment: Co-immunoprecipitation / Western blot of EMI domain or emilin1 with pro TGF-β in HEK293T cells; type: binding; details: HEK293T cell extracts or culture medium; anti-Flag / anti-LAP IP; FIG. 4A-4C
T1 construct: expressed in transfected cells; host or cells: HEK293T
T1 sequence (P01137 30-390): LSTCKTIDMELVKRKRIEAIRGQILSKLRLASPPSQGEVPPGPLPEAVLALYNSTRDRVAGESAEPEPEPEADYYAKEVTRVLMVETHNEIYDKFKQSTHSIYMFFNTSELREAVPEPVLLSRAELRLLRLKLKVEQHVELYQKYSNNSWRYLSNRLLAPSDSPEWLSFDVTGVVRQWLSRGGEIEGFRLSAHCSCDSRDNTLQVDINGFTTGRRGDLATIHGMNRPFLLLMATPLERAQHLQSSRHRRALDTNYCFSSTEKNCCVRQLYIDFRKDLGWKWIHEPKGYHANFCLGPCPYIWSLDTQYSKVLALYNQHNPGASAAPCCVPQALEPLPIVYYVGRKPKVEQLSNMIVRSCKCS
Description: • The construct for emilin 1 expression was engineered in pCS2 vector (Rupp R. A. et al., 1994, Genes Dev 8, 1311-1323) (for a physical map of the vector, see the site faculty.washington.edu/rtmoon/pcs2+.html) as described (Zanetti M. et al., 2004, Mol Cell Biol 24, 638-650); the vector used for proTGF-β expression in MEF and HEK293T cells is pCDNA3.1 (Invitrogen). Vectors containing the coding sequence for human pro TGF-β are described in Young and Murphy-Ullrich, 2004 (Young and Murphy-Ullrich, 2004, J Biol Chem 279, 38032-38039). […]

[2] = test system: TGF-β3; experiment: Experiments in Xenopus on interaction of the EMI domain with TGF-β3
[3] = biological target: T2, TGFBRII (type II TGF-β receptor) (Homo sapiens, UniProt P37173); experiment: 125I TGF-β1 / TGFBRII cross-linking (DSS) and anti-HA immunoprecipitation in transfected HEK293T cells; type: binding; details: HEK293T transfected with TGFBRII-HA and Flag-EMI-domain-GPI; iodinated TGF-β1; FIG. 2A
T2 construct: expressed in transfected cells; host or cells: HEK293T
T2 sequence (P37173 23-567): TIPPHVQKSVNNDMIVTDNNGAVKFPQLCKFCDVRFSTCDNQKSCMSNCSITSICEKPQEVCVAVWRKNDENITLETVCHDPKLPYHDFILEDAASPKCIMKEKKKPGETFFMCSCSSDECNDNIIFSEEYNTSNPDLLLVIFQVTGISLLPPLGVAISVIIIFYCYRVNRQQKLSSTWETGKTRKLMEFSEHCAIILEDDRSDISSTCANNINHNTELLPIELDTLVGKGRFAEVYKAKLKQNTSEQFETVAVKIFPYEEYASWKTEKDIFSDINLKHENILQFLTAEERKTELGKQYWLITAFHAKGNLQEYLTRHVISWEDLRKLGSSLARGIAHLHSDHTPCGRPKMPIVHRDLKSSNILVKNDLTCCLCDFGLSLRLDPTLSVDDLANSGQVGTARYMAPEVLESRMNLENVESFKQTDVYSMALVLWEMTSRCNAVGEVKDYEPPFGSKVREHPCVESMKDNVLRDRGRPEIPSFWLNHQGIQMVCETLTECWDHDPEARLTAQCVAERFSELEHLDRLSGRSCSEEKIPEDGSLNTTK
Protocol: Experiments were performed according to standard methods (Massague, 1987). Briefly, a solution of iodinated TGF-β1 (Amersham) was applied to HEK293T cells grown in 24 well plates and transfected with a plasmid carrying the sequence of TGFBRII (type II TGF-β receptor) fused to the HA epitope. After appropriate incubation and washing, the cell layer was exposed to a solution of DSS (disuccinimidyl suberate), a compound that favors formation of covalent cross-links between interacting molecules. The cell layer was extracted with immunoprecipitation buffer (RIPA-buffer) and subjected to the immunoprecipitation procedure with anti-HA antibody. The immunoprecipitate was solubilized with FSB (final sample buffer), separated by SDS-PAGE and radioactive complexes were detected by autoradiography. Molar excess of unlabeled TGF-β was used in parallel experiments. In other experiments, cells were simultaneously transfected with TGFBRII and with expression vectors driving expression of the emilin-1 EMI domain bound to GPI (glycosylphosphatidylinositol), a moiety which anchors the EMI domain to the cell membrane, that was tagged with the Flag epitope (Flag-EMI-domain-GPI).
Transfected cells, usually HEK293T, were incubated in Optimem (Invitrogen) for 24 hours prior to collection. […]

B1: EMI domain: cysteine-rich domain of emilin-1, residues 55-131, SEQ ID NO 2; in some experiments Flag-tagged and GPI-anchored (protein)
chain: RHRNWCAYVVTRTVSCVLEDGVETYVKYQPCAWGQPQCPQSIMYRRFLRPRYRVAYKTVTDMEWRCCQGYGGDDCAE
modifications: sometimes Flag tag and GPI anchor; homo sapiens
notes: in some experiments Flag-tagged and GPI-anchored
Question: Which “Interaction with pro TGF-β (co-immunoprecipitation)” value [1] does the source give for B1 here?
Answer: interacts specifically; also recorded: interacts only with the intact pro TGF-β molecule

Question: What about the “Interaction with TGF-β3” value [2] of the same molecule?
Answer: interaction

Question: What about the “Competition with TGF-β for binding to TGFBRII (TGFBRII/TGF-β complex band)” value [3] of the same molecule?
Answer: does non compete with TGF-β for binding to TGFBRII
